The text below walks through data of publication PMC3093405, “A Motif Unique to the Human Dead-Box Protein DDX3 Is Important for Nucleic Acid Binding, ATP Hydrolysis, RNA/DNA Unwinding and HIV-1 Replication”.

This data set deals with DDX3wt (Homo sapiens, UniProt O00571 1-662). The experiment in a line: EMSA; no ATP; EMSA: on ice, protein buffer 25 mM Tris-HCl pH 7.5, 0.5 mM DTT, 20% glycerol, 100 mM NaCl plus 5x binding buffer (10% glycerol, 5 mM MgCl2, 2.5 mM EDTA pH 8, 50 mM NaCl, 50 mM Tris-HCl pH 7.5, 10 mM DTT), 0.05 pmol oligo. Filter binding: 10 mM Hepes pH 7.2, 100 mM KCl, 3 mM MgCl2, 5% glycerol, 1 mM DTT, 50 µg/ml salmon sperm DNA, 50 nM dsDNA, 24°C. The conditions noted are these: protein: recombinant; tags: N-terminal ~3 kDa peptide with 6xHis; C-terminal KQGCFGG; label: 5' 6-FAM.
Chain of DDX3wt (O00571 whole entry): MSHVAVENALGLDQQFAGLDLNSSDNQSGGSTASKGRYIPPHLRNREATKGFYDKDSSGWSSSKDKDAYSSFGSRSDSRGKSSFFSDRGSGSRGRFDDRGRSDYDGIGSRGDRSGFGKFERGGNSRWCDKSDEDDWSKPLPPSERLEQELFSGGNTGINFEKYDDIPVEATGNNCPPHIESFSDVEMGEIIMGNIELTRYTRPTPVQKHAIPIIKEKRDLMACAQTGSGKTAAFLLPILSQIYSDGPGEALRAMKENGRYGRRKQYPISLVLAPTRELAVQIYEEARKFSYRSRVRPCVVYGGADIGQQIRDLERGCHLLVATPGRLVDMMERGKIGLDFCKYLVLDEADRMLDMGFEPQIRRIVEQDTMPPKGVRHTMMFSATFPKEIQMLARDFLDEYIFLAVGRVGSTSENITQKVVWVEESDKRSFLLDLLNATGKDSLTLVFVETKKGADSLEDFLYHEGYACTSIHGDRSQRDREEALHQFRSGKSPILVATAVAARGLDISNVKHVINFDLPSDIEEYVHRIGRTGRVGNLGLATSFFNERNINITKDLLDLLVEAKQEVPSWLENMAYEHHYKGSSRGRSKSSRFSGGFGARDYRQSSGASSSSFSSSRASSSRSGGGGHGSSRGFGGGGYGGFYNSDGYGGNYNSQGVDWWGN

With CCCAAGAACCCAAGGAAC (ssRNA) [ssRNA (6-FAM r18mer)], the binding result is “binds”.
To CTCAACTCAACCCTTCAT (ssDNA) [ssDNA (6-FAM d18mer)] belongs “binds”.
